Here are results for five variants from FireProtDB (doi:10.1016/j.str.2006.07.007).

Sequences and labels used below:
B1: Azurin, P00282 (parent)
chain: MLRKLAAVSLLSLLSAPLLAAECSVDIQGNDQMQFNTNAITVDKSCKQFTVNLSHPGNLPKNVMGHNWVLSTAADMQGVVTDGMASGLDKDYLKPDDSRVIAHTKLIGSGEKDSVTFDVSKLKEGEQYMFFCTFPGHSALMKGTLTLK

Variants of B1 are the subject of this data set. The note with it: Pseudomonas aeruginosa (strain ATCC 15692 / DSM 22644 / CIP 104116 / JCM 14847 / LMG 12228 / 1C / PRS 101 / PAO1); pH 7; 25 °C; GdnHCl; Fluorescence; Phosphate 100 mM; reversible: Yes; structure 5AZU; whole UniProt chain shown.

Consider L145A, for which the “ddG of mutation (higher = less stable)” value was determined as 0.72 kcal/mol and the unfolding free energy worked out at 5.26 kcal/mol.

For V80G, the “ddG of mutation (higher = less stable)” value was 3.11 kcal/mol and the unfolding free energy was found to be 2.87 kcal/mol.

With I27A, the “ddG of mutation (higher = less stable)” value came out at 3.11 kcal/mol and the unfolding free energy was 2.87 kcal/mol.

On to A102G, for which the “ddG of mutation (higher = less stable)” value stood at 3.11 kcal/mol and the unfolding free energy stood at 2.87 kcal/mol.

Regarding V25A, the “ddG of mutation (higher = less stable)” value came to 0 kcal/mol and the unfolding free energy was 5.98 kcal/mol.
